Measured values: the supplement of paper PMC9170038

Experiments:
MS2 coat protein [1] = assay: apparent KD of MS2 coat protein, switch ON state; designed switch direction (-1 OFF switch, 1 ON switch): -1; higher = weaker reporter binding; settings: FMN input: 0 or 200 uM; Eterna round: R93 (includes R88 designs)
Summary of the method: (§1)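 Designed RNA switches were transcribed on-chip from Illumina sequencing clusters. They were then titrated with SNAP-549-labelled MS2 coat protein (twofold steps, 0.7 or 1.5 nM to 3 µM; 0.8–1.5 h to 10–20 min per step) in 100 mM Tris-HCl pH 7.5, 80 mM KCl, 4 mM MgCl2, without or with constant ligand. Apparent KD is the per-design median of normalised cluster binding-curve fits.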

MS2 coat protein [2] = assay: apparent KD of MS2 coat protein, switch OFF state (with FMN for OFF switches, without FMN for ON switches); designed switch direction (-1 OFF switch, 1 ON switch): -1; higher = weaker reporter binding; settings: FMN input: 0 or 200 uM; Eterna round: R93 (includes R88 designs)
Summary of the method: as §1

MS2 coat protein [3] = assay: apparent KD of MS2 coat protein; designed switch direction (-1 OFF switch, 1 ON switch): 1; higher = weaker reporter binding
Summary of the method: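 Designed RNA switches sharing common flanks were transcribed on Illumina chips by stalled E. coli RNA polymerase. They were titrated with SNAP-549-labelled MS2 coat protein, from 0.7 or 1.5 nM doubling to 3 µM, in Tris-HCl pH 7.5 buffer with KCl, MgCl2, BSA, DTT, tRNA and Tween-20. Titrations ran without input, with 200 uM small-molecule ligand, or with an oligonucleotide input. The apparent KD of each design is the median over its clusters, after curve-fitting of normalised cluster fluorescence.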

[4] = input ligand: microRNA oligo, concentration not stated
[5] = Eterna round: R95, input ligand: FMN 200 uM
[6] = Eterna round: R95, input ligand: microRNA oligo, concentration not stated
[7] = Eterna round: R95, input ligand: none

Sequence | apparent KD of MS2 coat protein (MS2 coat protein [1]) | apparent KD of MS2 coat protein (MS2 coat protein [2]) | further results
AAAAAGUUAGGAUAUACAUGAGGAUCACCCAUGUGCACAUAUGGAGAAUAUGGUGGUAGUAGAAGGGACAAAAA [EX2 Malc#17] | 33.9 nM | 69.7 nM | –
AACAGGUCAGGAUAUGUGGAAAAAAUAAAAAAAAAUAAAACACAGAAGGGACAUGAGGAUCACCCAUGUAAACA [Mat - Exclusion 4 - Mayanna - D143] | 49.3 nM | 56.8 nM | –
CUCAAGUUAGGAUAUGGAAGAAAAGAAGAGAAAGAAAAGAACCAGAAGGAACAUGAGGAUCACCCAUGUAAGAA [EteRNA is fun!] | 58.1 nM | 62.7 nM | –
CUCUAGUUAGGAUAUGCAAGAAAAGAAGAGAAAGAAAAGAAGCAGAAGGAACAUGAGGAUCACCCAUGUAAGAA [EteRNA is fun!] | 22.7 nM | 20.4 nM | –
AACUGACAUGAGGAUCACCCAUGUCAGGAUAUGAUUUGACGAAAUAAAUAAAGUCAUAUCAGAAGGGACAUGGA [Design 80: Sub-opt U] | 25 nM | 50.4 nM | –
CAUAGGCGAGGAUAUACAUGAGGAUCACCCAUGUAAGGAAACCUGGCAGACUCAGAAUGUAGAAGGCGCACUGA [Ex3_Neo] | 17.1 nM | 32.5 nM | –
GAAACACAUGAGGAUCACCCAUGUCAGGAUAUGUAGAUAAAAAGAAAAUAAAAUAAAAACAGAAGGGACAAAAG [Mat - Same state - Mayanna Mod - D103] | 64.4 nM | 76.3 nM | –
GAAGAACAUGAGGAUCACCCAUGUCAGGAUAUACAGAAGGGAAUAAUAUAACCUGGAAGUAGAAGGGACAAGAA [Ex 1 May 44] | 30.2 nM | 65.4 nM | –
UCCUGACAUGAGGAUCACCCAUGUCAGGAUAUGCAUCUUAGGAAAAAAAAACUAAGAUGCAGAAGGGACAUGGG [Design 1: Super Stable] | 26.9 nM | 36.3 nM | –
AAAAGCUCAGGAUAUACGGUCUGUUGUUGAGAAAUAUCGAAACAUGAGGAUCACCCAUGUAGAAGGGAGCGAAA [Exclusion2-cac2] | 108 nM | 269 nM | –
GGUUGGCGAGGAUAUACAUGAGGAUCACCCAUGUGAGAGAAGAAAGUGAGGAGGAGAAGUAGAAGGCGCUGACG [salish99-ex3-20] | 51.4 nM | 98.9 nM | –
CGUUGGCGAGGAUAUACAUGAGGAUCACCCAUGUGAGAGAAAAAAGUGAGAAAGAAAAGUAGAAGGCGCUGACU [salish99-ex3-11] | 43.6 nM | 132 nM | –
AAGUUGUCAGGAUAUGCUUGUCGUCACAAAAGUGAUGACGAGCAGAAGGGACAUGAGGAUCACCCAUGUAAAGA [JL eternac mod 2] | 65.8 nM | 117 nM | –
AAUAAGAGAGGAUAUACUAAAGAAAUGAAAAGGGAUAAAGAACAUGAGGAUCACCCAUGUAGAAGGCUCAAUAA [Khyan] | 24.3 nM | 40.3 nM | –
AAAAAACAUGAGGAUCACCCAUGUGAGGAUAUCGGAAAAGGAAAAAAAAAAAAGAAGACGAGAAGGCACACCAA | 28.6 nM | 25.1 nM | –
GAAAAGCGAGGAUAUACAGAAAAAAAAACAAAAAAAGAAAAACAUGAGGAUCACCCAUGUAGAAGGCGCAAAAA [V1] | 25.9 nM | 49.4 nM | –
AAGAACUUAGGAUAUACAAGGAAGAAAGAAAAGAAAAGAAAACAUGAGGAUCACCCAUGUAGAAGGAAGUAGAA [EteRNA is fun!] | 40.9 nM | 21.5 nM | –
AUCAUGUAAGGAUAUGUAAGAAAAGAAAAGAAAGAAAAGAAACAGAAGGUACAUGAGGAUCACCCAUGUAAGAA [EteRNA is fun!] | 26.5 nM | 34.5 nM | –
AAUAAGUCAGGAUAUACUAAAGAAAUGAAAAGAAAUAAAGAACAUGAGGAUCACCCAUGUAGAAGGGACAAUAA [Anati Djedkare] | 100 nM | 53.6 nM | –
AUCAUGUAAGGAUAUUCAAGAAAAGAAAAGAAAGAAAAGAAGAAGAAGGUACAUGAGGAUCACCCAUGUAAGAA [EteRNA is fun!] | 42.5 nM | 64.2 nM | –
AAAAGUGGAGGAUAUACAUGAGGAUCACCCAUGUGUAAAAAUAAAUACACAAAAGAAAGUAGAAGGCCACAAAA [Ex 3 May 10] | 25.8 nM | 122 nM | –
AGCUAGUCAGGAUAUACGAACAUGUCAGAAGACGUGAAGGGACAUGAGGAUCACCCAUGUAGAAGGGACUAGCA [74%, Web mod - With 1 more G's] | 31.9 nM | 102 nM | –
ACCUGACAUGAGGAUCACCCAUGUCAGGAUAUGUACAUCAGGAAAAAAAAACUGAUGUACAGAAGGGACAAGGG [Design 6: Super Stable - A-U mutation 2] | 17.8 nM | 13.7 nM | –
AUUAUUUCUGCAGGAUAUGAUUAACAUGAGGAUCACCCAUGUGGUGUUGUGAGUAAGGAGAGUGAUCAGAAGGGCAUUUUUUUU [JMF's solution 62] (Eterna round: R96, puzzle: Same State NG 2) | – | – | apparent KD of MS2 coat protein (MS2 coat protein [3]; input ligand: FMN 200 uM): 630 nM; apparent KD of MS2 coat protein (MS2 coat protein [3]; [4]): 211 nM; apparent KD of MS2 coat protein (MS2 coat protein [3]; input ligand: none): 313 nM
AACGUGGGAGCACAGGAUAUGCAUUGCUCCACAUGAGGAUCACCCAUGUAGGCAAAUAGGGAGCAGCAGAAGGGUGGUCCGACAC [Orraonrexe] (puzzle: Same State 2) | – | – | apparent KD of MS2 coat protein (MS2 coat protein [3]; [5]): 17.3 nM; apparent KD of MS2 coat protein (MS2 coat protein [3]; [6]): 8.24 nM; apparent KD of MS2 coat protein (MS2 coat protein [3]; [7]): 21.8 nM
GAGCCAGUCCGAGGAUAUUCAUAUUAACACAUGAGGAUCACCCAUGUAGGCUCAGAAGAGCCUUGGGAGAAGGCGGACUGGCUC [SS-NG2-LRO14] (Eterna round: R96, puzzle: Same State NG 2) | – | – | apparent KD of MS2 coat protein (MS2 coat protein [3]; input ligand: FMN 200 uM): 35.2 nM; apparent KD of MS2 coat protein (MS2 coat protein [3]; [4]): 227 nM; apparent KD of MS2 coat protein (MS2 coat protein [3]; input ligand: none): 311 nM
UCUUGGUUUUUGCUCGUUUUUUGUGUUGAACAUGAGGAUCACCCAUGUAUUGUACGGUCCGGUUUGAUAAUGGUCCG [JMF 13] (puzzle: Sensor for hsa-mir-208a) | – | – | apparent KD of MS2 coat protein (MS2 coat protein [3]; [5]): 26 nM; apparent KD of MS2 coat protein (MS2 coat protein [3]; [6]): 15.5 nM; apparent KD of MS2 coat protein (MS2 coat protein [3]; [7]): 27.1 nM
UGGCUGGUGCUAGGAUAUGCAUGAGGCCUCCUCGUAGAAGGAGCACGACAUGAGGAUCACCCAUGUGGCCGUCCGUGGGCGGCU [salish99_SSNG1_r04_015] (Eterna round: R96, puzzle: Same State NG 1) | – | – | apparent KD of MS2 coat protein (MS2 coat protein [3]; input ligand: FMN 200 uM): 68 nM; apparent KD of MS2 coat protein (MS2 coat protein [3]; [4]): 44.8 nM; apparent KD of MS2 coat protein (MS2 coat protein [3]; input ligand: none): 60.1 nM
